# Test results taken from article PMC5027291, “The NF-YC–RGL2 module integrates GA and ABA signalling to regulate seed germination in Arabidopsis” (Nature Communications, 2016).
# T1: GST-RGL2 (Arabidopsis, UniProt Q8GXW1 1-547)
# T1 construct: RGL2 of Arabidopsis; coding region cloned into pGEX-4T-1; source: E. coli Rosetta (DE3), purified (Glutathione Sepharose beads); not shown: GST, N-terminal, kept
# T1 sequence (looked up): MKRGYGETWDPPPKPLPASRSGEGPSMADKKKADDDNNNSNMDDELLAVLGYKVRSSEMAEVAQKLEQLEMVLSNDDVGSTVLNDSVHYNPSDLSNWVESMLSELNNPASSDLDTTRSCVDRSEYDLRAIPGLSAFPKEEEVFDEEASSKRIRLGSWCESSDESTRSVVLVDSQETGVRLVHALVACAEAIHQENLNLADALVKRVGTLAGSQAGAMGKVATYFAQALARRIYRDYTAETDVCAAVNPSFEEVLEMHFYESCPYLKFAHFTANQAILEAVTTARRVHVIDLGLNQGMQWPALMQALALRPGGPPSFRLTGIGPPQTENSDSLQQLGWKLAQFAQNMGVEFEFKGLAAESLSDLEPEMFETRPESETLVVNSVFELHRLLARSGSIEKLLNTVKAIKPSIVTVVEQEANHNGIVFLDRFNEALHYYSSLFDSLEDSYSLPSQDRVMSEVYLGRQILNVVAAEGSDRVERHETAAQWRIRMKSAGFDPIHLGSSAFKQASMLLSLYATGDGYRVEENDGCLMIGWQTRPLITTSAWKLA
# B1: His-NF-YC4 (natural protein, Arabidopsis, UniProt Q9FMV5 1-250, looked up)
# chain: MDNNNNNNNQQPPPTSVYPPGSAVTTVIPPPPSGSASIVTGGGATYHHLLQQQQQQLQMFWTYQRQEIEQVNDFKNHQLPLARIKKIMKADEDVRMISAEAPILFAKACELFILELTIRSWLHAEENKRRTLQKNDIAAAITRTDIFDFLVDIVPREEIKEEEDAASALGGGGMVAPAASGVPYYYPPMGQPAVPGGMMIGRPAMDPSGVYAQPPSQAWQSVWQNSAGGGDDVSYGSGGSSGHGNLDSQG
# notes: NF-YC4 of Arabidopsis; coding region cloned into pQE30; source: E. coli Rosetta (DE3), purified (Ni-NTA agarose); not shown: His, N-terminal, kept
# B2: His-NF-YC9 (natural protein, Arabidopsis, UniProt Q8L4B2 1-231, looked up)
# chain: MDQQDHGQSGAMNYGTNPYQTNPMSTTAATVAGGAAQPGQLAFHQIHQQQQQQQLAQQLQAFWENQFKEIEKTTDFKNHSLPLARIKKIMKADEDVRMISAEAPVVFARACEMFILELTLRSWNHTEENKRRTLQKNDIAAAVTRTDIFDFLVDIVPREDLRDEVLGSIPRGTVPEAAAAGYPYGYLPAGTAPIGNPGMVMGNPGGAYPPNPYMGQPMWQQQAPDQPDQEN
# notes: NF-YC9 of Arabidopsis; coding region cloned into pQE30; source: E. coli Rosetta (DE3), purified (Ni-NTA agarose); not shown: His, N-terminal, kept
# B3: His-NF-YC3 (natural protein, Arabidopsis, UniProt Q9ZVL3 1-217, looked up)
# chain: MDQQGQSSAMNYGSNPYQTNAMTTTPTGSDHPAYHQIHQQQQQQLTQQLQSFWETQFKEIEKTTDFKNHSLPLARIKKIMKADEDVRMISAEAPVVFARACEMFILELTLRSWNHTEENKRRTLQKNDIAAAVTRTDIFDFLVDIVPREDLRDEVLGGVGAEAATAAGYPYGYLPPGTAPIGNPGMVMGNPGAYPPNPYMGQPMWQQPGPEQQDPDN
# notes: NF-YC3 of Arabidopsis; coding region cloned into pQE30; source: E. coli Rosetta (DE3), purified (Ni-NTA agarose); not shown: His, N-terminal, kept
# Molecular target: T1, GST-RGL2
# Experiment: pull-down; 2 ug of His-NF-YCs incubated with GST or GST-RGL2 immobilised on Glutathione Sepharose beads; 50 mM Tris-HCl pH 8.0, 100 mM NaCl, 1 mM EDTA; 4 °C, 2 h; blots with anti-His and anti-GST
# Conditions: both partners purified
row,binding result,Binder
1,binds,B1
2,binds,B2
3,binds,B3
